Source: paper PMC11975290, “Two redox-responsive LysR-type transcription factors control the oxidative stress response of Agrobacterium tumefaciens” (Nucleic Acids Research, 2025)

How the values were obtained:
[1] = molecular target: T1, His-ArgP (Escherichia coli (ASKA collection)) (UniProt P0A8S1); experiment: EMSA; settings: Radioactive EMSA: 20 min at 30 C, 6% polyacrylamide gel, buffer by reference (Müller et al.); ArgP agarose EMSA: 10 mM Tris-HCl pH 8.5, 10 mM MgCl2, 100 mM …
T1 sequence: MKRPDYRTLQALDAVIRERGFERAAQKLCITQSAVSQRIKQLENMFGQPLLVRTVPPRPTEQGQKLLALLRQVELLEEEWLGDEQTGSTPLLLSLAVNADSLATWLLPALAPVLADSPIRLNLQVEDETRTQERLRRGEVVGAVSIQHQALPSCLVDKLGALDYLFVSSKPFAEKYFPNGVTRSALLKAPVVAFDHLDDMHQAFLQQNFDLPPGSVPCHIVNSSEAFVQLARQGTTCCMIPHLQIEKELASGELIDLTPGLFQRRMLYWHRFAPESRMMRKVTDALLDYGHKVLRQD

[2] = molecular target: T2, LsrB-His (Agrobacterium tumefaciens) (UniProt A9CI74); experiment: EMSA; settings: Radioactive EMSA: 20 min at 30 C, 6% polyacrylamide gel, buffer by reference (Müller et al.); ArgP agarose EMSA: 10 mM Tris-HCl pH 8.5, 10 mM MgCl2, 100 mM …
T2 sequence: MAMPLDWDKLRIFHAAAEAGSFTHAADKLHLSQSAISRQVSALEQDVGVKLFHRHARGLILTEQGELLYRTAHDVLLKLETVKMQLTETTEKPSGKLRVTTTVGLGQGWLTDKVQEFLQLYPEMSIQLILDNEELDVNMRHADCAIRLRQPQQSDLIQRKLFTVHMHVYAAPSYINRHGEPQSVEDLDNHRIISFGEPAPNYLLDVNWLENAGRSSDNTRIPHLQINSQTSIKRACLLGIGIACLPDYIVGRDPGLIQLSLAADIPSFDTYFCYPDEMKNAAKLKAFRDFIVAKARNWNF

[3] = molecular target: the molecule itself; experiment: cryo-EM structure; single-particle cryo-EM of purified LsrB (1.2 mg/ml), without DNA; DNA-binding domain excluded from the analysis; AlphaFold 3 model of the SBD dimer rigid-body fitted into the 3.9 Å map

## CGCTTCTGTGGTTTTAGTTTCGGAAACCATACAAAAATGCTATCCATCTTAAAAATGAGGCGCGATTGTAGCAGACGATTGGCAATCCTTCCGGCAGAAATACACGGTTATAAGACACCTTCATGATCGCCCAGGGATTATAAGTAAAGCAGCCAATCTCTTTTCTGGCGAATGCATGCTGAAGGCGCTGCGTCACGAAATCGACACAGCACCAGCATGTTCTTGTACAGCAACTTAACGCGGCACATTTGCGGGATCGCAATAGTCCAGAAAGCG (double strand) [lysP promoter 276 bp]
[1]
  binding: binds

## GCGGCTAAACGTCTTTTCGCTGGGGATGGCGGAGAAGCCGACAATCCACCTTAGGTTTTGGAGAACACGAAAGATGAAATTTAATCGCAGACATATCGCACTGGCCGCTTTGGTCTCGACGGGCCTGGTCACGCAGGCTTCTGCCGCTGATGATG (double strand) [ampC promoter 155 bp]
[2]
  binding: no binding

B1: LsrB (LysR-type symbiosis regulator B) of Agrobacterium tumefaciens (natural protein)
chain: MAMPLDWDKLRIFHAAAEAGSFTHAADKLHLSQSAISRQVSALEQDVGVKLFHRHARGLILTEQGELLYRTAHDVLLKLETVKMQLTETTEKPSGKLRVTTTVGLGQGWLTDKVQEFLQLYPEMSIQLILDNEELDVNMRHADCAIRLRQPQQSDLIQRKLFTVHMHVYAAPSYINRHGEPQSVEDLDNHRIISFGEPAPNYLLDVNWLENAGRSSDNTRIPHLQINSQTSIKRACLLGIGIACLPDYIVGRDPGLIQLSLAADIPSFDTYFCYPDEMKNAAKLKAFRDFIVAKARNWNF
notes: LsrB, LysR-type transcriptional regulator of Agrobacterium tumefaciens (atu2186); also called Atu2186; LsrB^His; source: E. coli BL21 (DE3), purified (His-tagged or Strep-tagged; Strep-Tactin resin for the Strep-tagged form)
[3]
  stoichiometry N: 2
